Laboratory results taken from patent publication US20190248902A1 (published 2019).

T1: Cyno ASGR-1 (cynomolgus monkey, UniProt P07306 1-291 (human entry))
T1 construct: Expressed on HEK 293 cells or as membrane prep on beads; cDNA from XP_005582755; also called cynomologus monkey ASGR-1
T1 chain: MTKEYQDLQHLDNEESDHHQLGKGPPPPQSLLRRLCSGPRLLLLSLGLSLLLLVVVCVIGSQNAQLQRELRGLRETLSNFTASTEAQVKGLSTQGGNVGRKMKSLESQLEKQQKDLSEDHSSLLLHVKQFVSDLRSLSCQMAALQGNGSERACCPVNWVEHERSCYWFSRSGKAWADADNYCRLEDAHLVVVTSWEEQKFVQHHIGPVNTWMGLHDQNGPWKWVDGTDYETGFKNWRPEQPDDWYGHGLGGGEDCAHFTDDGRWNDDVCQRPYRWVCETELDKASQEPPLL


Target: T1, Cyno ASGR-1
Assay: FACS on transfected HEK 293 cells or membrane preps on beads; Y = signal at least 2x irrelevant IgG
Procedure: Human ASGR-1-specific, ligand competing antibody samples were tested for binding to ASGR-1 from other species (cynomologus monkey ASGR-1, mouse ASGR-1, rat ASGR-1, dog ASGR-1, and pig ASGR-1) as well as to human ASGR-2 in FACS binding assays at normalized antibody concentrations. For cell-based assays, HEK 293 cells expressing the appropriate antigen of interest were mixed with antibody sample or controls, incubated for 1 hour at 4° C., and then washed twice. Cells with bound antibody were then incubated with Alexa Fluor® 647 IgG Fc fragment-specific detection antibody and 7-AAD viability stain for 15 minutes at 4° C., washed once and resuspended in FACS buffer. Samples were analyzed using a BD Accuri™ Flow Cytometer and an Intellicyt HyperCyt Autosampler. As a negative control, supernatants and controls were also screened against HEK 293 cells transfected with empty parental vector. […] For membrane-prep binding assays, ASGR-1 species specific membrane preps were used to coat LumAvidin® microspheres (beads) and tested for binding to selected hybridoma supernatants or controls. Briefly, ASGR-1 species specific membrane preps were incubated with streptavidin-coated LumAvidin® beads for 45 minutes in the dark at room temperature and washed twice. Beads were resuspeneded in FACS buffer containing Stabilguard®. Antigen-bound beads were then incubated with normalized antibody sample for 1 hour in the dark at room temperature, washed twice, incubated with Alexa Fluor® 488 IgG Fc fragment-specific detection antibody for 15 minutes in the dark at room temperature, washed once and finally resuspended in FACS buffer. Samples were analyzed using an Intellicyt iQue™ Screener Platform. FACS buffer supplemented with 1 mM Calcium Chloride was used in all steps. As a negative control, supernatants and controls were also screened against a non-ASGR-1 antigen membrane prep coated on the LumAvidin® beads.

| Binder | binding result |
| --- | --- |
| 6G7 (antibody, V domains shown, Tested as hybridoma supernatant at normalized concentration) VH: QVQLVESGGGVVQPGRSLRLSCAASGFTFSSYGMHWVRQTPGKGLEWVAIISYVGKNKYYADSVKGRFTISRDNSKNTLYLQMNSLRAEDTAVYYCARRGNSYGGYGMDVWGQGTTVTVSS VL: DIQMTQSPSSRSASVGDRVTITCQASQDISNYLNWCQQKPGKALKLLIYDASTLETGVPSRFSGSGSGTDFTFTISSVQPEDIATYYCQQYDNVPITFGQGTRLEIK | binds |
| 75G3 (antibody, V domains shown, Tested as hybridoma supernatant at normalized concentration) VH: QVQLQQWGAGLLKPSETLSLTCAVYGGSLSGSYWSWIRQPPGKGLEWIGEINLSGSTNYNPSLKSRVTISVDTSKSQFSLTLRSVTAADTAVYYCARDYGGLDYWGQGTLVTVSS VL: EIVLTQSPGTLSLSPGERATLSCRARQNVDSSYLAWYQQKPGQAPRLLIYGASSRATGIPDRFSGSGSGTDFTLTISRLEPEDFAVFYCQQYERSPWTFGQGTKVEIK | binds |
| 190F8 (antibody, V domains shown, Tested as hybridoma supernatant at normalized concentration) VH: QVQLVESGGGVVQPGRSLRLSCAASGFTFSTYGMHWVRQAPGKGLEWVAVIWYDGSNKNYADSVKGRFTISRDNSKNTLYLQMNSLRAEDTAVYYCARDQGVGYDGLDVWGQGTTVTVSS VL: DIQMTQSPSSLSASVGDRVTITCRTSQGIGNYLAWFQQKPGKAPKSLLYKASSLQSGVPSKFSGSGSGTDFTLTISSLQPEDFATYYCQQYMTYPLTFGGGTKVEIK | binds |
| 197G3 (antibody, V domains shown, Tested as hybridoma supernatant at normalized concentration) VH: QVQLVESGGGVVQPGRSLRLSCVASGFTFSSHGMHWVRQAPGKGLEWVAVIWYDGSNKNYADSVKGRFTISRDNSKNTLYLQMNSLRAEDTAVYYCARDPSVGYDGMDVWGQGTTVTVSS VL: DIQMTQSPSSLSASVGDRVTITCRASQGIGNHLAWFQQKPGKAPKSLIYAASSLQSGVPSKFSGSRSGTDFSLTISSLQPEDFATYYCQQYSNYPVTFGPGTKVDIK | binds |
| 198G3 (antibody, V domains shown, Tested as hybridoma supernatant at normalized concentration) VH: QVQLVESGGGVVQPGRSLKLSCAASGFTFSTYGMHWVRQAPGKGLEWVAVIWYDGTNKNYADSVKGRFTISRDNSKNTLCLQMNSLRAEDTAVYYCARDQGVGYDGLDVWGQGTTVTVSS VL: DIQMAQSPSSLSASVGDRVTITCRTSQGIGKYLAWFQQKPGKAPKSLLYKASSLQGGVPSKFSGSGSGTDFTLTISSLQPEDFATYYCQQYMTYPLTFGGGTKVEIK | binds |
| 191G1 (antibody, V domains shown, Tested as hybridoma supernatant at normalized concentration) VH: QVQLVESGGGVVQPGRSLRLSCAASGFTFSSYGMHWVRQAPGKGLEWVAVIWYDGSNEHYADSVKGRFTISRDNSKNTLYLQMNSLRAEDTAVYYCARDRGVGYYGLDVWGQGTTVTVSS VL: DIQMTQSPSSLSASVGDRVTITCRASQGISNYLAWFQQKPGKAPKSLIYAASSLQSGVPSKFSGSGSGTDFTLTISSLQPEDFATYYCQHYLTYPLTFGGGTKVEIK | binds |
| 22G5 (antibody, V domains shown, Tested as hybridoma supernatant at normalized concentration) VH: EVQLLESGGGLVQPGGSLRLSCAASGFTFSSYAMNWVRQAPGMGLEWVSVISRSGGYTYYADSVKGRFTISRDNSKNTLYLQMNSLRAEDTAVYYCASRLAVAGSEAFDIWGQGTLVTVSS VL: DIQMTQSPSSLSASVGDRVTITCRASQNISSYLNWYQQKQGKAPKLLIYAASSLQNGVPSRFSGRGSGTDFTLTISSLQPEDFATYYCQQSYRTPLFTFGPGTKVDFK | binds |
| 193E7 (antibody, V domains shown, Tested as hybridoma supernatant at normalized concentration) VH: QVQLQQWGAGLLKPSETLSLTCAVYGGSFSGYFWTWIRQPPGKGLEWIGEINHSGSTNYNPSLKSRVTISVDTSKNQFSLKLSSVTAADTAVYYCARDYGADYWGQGTLVAVSA VL: DIQMTQSPSSLSASVGDRVTITCRASQGIRNDLGWYQQKPGKAPKRLIYSASSLQRGVPSRFSGSGSGTEFTLTISSLQPEDFATYYCLQHKRYPLTFGGGTKVEIK | binds |
| 7G4 (antibody, V domains shown, Tested as hybridoma supernatant at normalized concentration) VH: QVQLVESGGGVVQPGRSLRLSCAASGFTFNNYVMHWVRQAPGKGLEWVAVIWYDGSNKYYADSVKGRFTISRDNSKNTLYLQMTSLRAEDTAVYYCAREKYSSNWYDYGMDVWGQGTTVTVSS VL: DIQMTQSPSSLSASVGDRVTITCRASQGIRNDLGWYQQRPGKAPKRLIYAASSLQSGVPSRFSGSGSGTEFTLTISSLQPEDSATYYCLHQYSYPRTFGQGTKVEIK | binds |
| 5E5 (antibody, V domains shown, Tested as hybridoma supernatant at normalized concentration) VH: QVQLVESGGGVVQPGRSLRLSCAASGFTFSNYVMHWVRQAPGKGLEWVAVIWYDGSNKYYADSVKGRFTISRDNSKNTLYLQMNSLRAEDTAVYYCTREVYSSGWYDYGMDVWGQGTTVTVSS VL: DIQMTQSPSSLSASVGDRVTITCRASQGIRNDLGWYQQKPGKAPKRLIYAASSLQSGVPSRFSGSGSGTEFTLTISSLQPEDFATYYCLQHYSYPRTFGQGTKVEVK | binds |
| 7E11 (antibody, V domains shown, Tested as hybridoma supernatant at normalized concentration) VH: QVQLVESGGGVVQPGRSLRLSCAASGFTFSSFGMHWVRQAPGKGLEWVAIIWHDGSNKYYADSVKGRFTISRDNSNNTLYLQMSSLRAEDTAVYYCARDLSMGGMDVWGQGTTVTVSS VL: DIQMTQSPSSLSASVGDRVTIACRASQNIISYLNWYQQKPGKAPKFLIYTASSLQSGVPSRFSGSGSGTDFTLTISSLQPEDFAIYYCQQTYSTPLTFGGGTKVEIK | binds |
| 54E9 (antibody, V domains shown, Tested as hybridoma supernatant at normalized concentration) VH: QVQLVQSGAEVKKPGASVKVSCKASGYTFNSYGISWVRLAPGQGLEWMGWISAYNGNTKNAQKLQGRVTMTTDTSTSTAYMELRSLRSDDTAVYYCARHDFWSGYYKGMDVWGQGTTVTVSS VL: not shown | binds |

More lines, now with the values ahead:

| binding result | Binder |
| --- | --- |
| binds | 176H4 (antibody, V domains shown, Tested as hybridoma supernatant at normalized concentration) VH: QVQLVESGGGVVQPGRSLRLSCAASGFTFSSYGMHWVRQAPGKGLEWVAIIWYDGSYKYYADSVKGRFTISRDNSKNTLYLQMSSLRAEDTAVYYCARDAHDFWSGYFAYWGQGALVTVSS VL: DIVMTQTPLSLSVTPGQPASISCKSSQSLLHGDGKTYLYWYLQKPGQPPQLLIYEVSNRFSGVPDRFSGSGSGTDFTLKISRVEAEDVGIYYCMQSIQIPWTFGQGTRVEIK |
| binds | 194C1 (antibody, V domains shown, Tested as hybridoma supernatant at normalized concentration) VH: QVQLVESGGGVVQPGRSLRLSCAASGFTFSSYGMHWVRQAPGKGLEWVAVIWYDGSNEHYADSVKGRFTISRDNSKNTLYLQMNSLRAEDTAVYYCARNRGVGYYGLDVWGQGTTVTVSS VL: DIQMTQSPSSLSASVGDRVTITCRASQGISNYLAWFQQKPGKAPKSLIYAASSLQSGVPSKFSGSGSGTDFTLTISSLQPEDFATYYCLHYLTYPLTFGGGTKVEIK |
| binds | 191G10 (antibody, V domains shown, Tested as hybridoma supernatant at normalized concentration) VH: QVQLVESGGGVVQPGRSLRLSCAASGFTFSSYGMHWVRQAPGKGLEWVAVIWYDGSNKNYADSVKGRFTISRDNSKNTLYLQMNSLRAEDTAVYYCARDQGVGYDGLDVWGQGTTVTVSS VL: DIQMTQSPSSLSASVGDRVTITCRTSQGIGKYLAWFQQKPGKAPKSLLYKVSSLQSGVPSKFSGSGSGTDFTLTISSLQPEDFATYYCQQYMTYPLTFGGGTKVEIK |
| binds | 202A3 (antibody, V domains shown, Tested as hybridoma supernatant at normalized concentration) VH: QVQLEQSGAEVKKPGASVKVSCKASGYTFTSYDINWVRQATGQGLEWLGWMNPKRGNTGYAQKFQGRVTMTRNTSISTAHMELSSLRSEDTAVYYCARGRYSREDYYYYYDMDVWGQGTTVTVSS VL: DIQMSQSPSSLSASVGDRVTITCRASQGIRNDLGWYQQKPGKAPKRLICAASRLQSGVPSRFSGSGSGTEFTLTISSLQPEDFAIYYCLQHHDYPFTFGPGTKVDIK |
| binds | 218G4 (antibody, V domains shown, Tested as hybridoma supernatant at normalized concentration) VH: QVQLVESGGGVVQPGRSLRLSCAASGFTFSSYGLHWVRQAPGKGLEWVAVIWYDGSNKYYADSVKGRFTISRDNSKNTLYLQMNSLRVEDTAVYYCANWYYYYYGMDVWGQGTTVTVSS VL: QSVLTQPPSVSAAPGQKVTISCSGSSSNIGNNYVSWYQQLPGTAPKLLLYDSNKRPSGIPARFSGSKSGTSATLGITGLQTGDEADYYCGTWDSSLNTVVFGGGTKLTVL |
| binds | 198D2 (antibody, V domains shown, Tested as hybridoma supernatant at normalized concentration) VH: QVQLVESGGGVVQPGRSLRLSCAASGFTFRSYGMHWVRQAPGKGLEWVAVIIYDGSYKYYADSVKGRFTISRDNSKNTLYLQMNSLRAEDTAVYYCARTYSGGMDVWGQGTTVTVSS VL: QSVLTQPPSVSAAPGQKVTISCSGSSSNIGSNYVSWYQQLPGTAPKVLIYDNNKRPSGIPDRFSGSKSGTSATLGITGLQTGDEADYYCGTWDSRLNVGVFGGGTKLTVL |
